Test results: patent publication US20050256058A1
Square brackets hold non-standard residues; d marks the D form. * marks the point of attachment. Hydrocinnamoyl = O=C(CCc1ccccc1)*; CH:CH‑COOEt = CCOC(=O)/C=C/*; AOrn = not defined here; Cbz = O=C(OCc1ccccc1)*

T1: Clostripain, P09870
T1 chain: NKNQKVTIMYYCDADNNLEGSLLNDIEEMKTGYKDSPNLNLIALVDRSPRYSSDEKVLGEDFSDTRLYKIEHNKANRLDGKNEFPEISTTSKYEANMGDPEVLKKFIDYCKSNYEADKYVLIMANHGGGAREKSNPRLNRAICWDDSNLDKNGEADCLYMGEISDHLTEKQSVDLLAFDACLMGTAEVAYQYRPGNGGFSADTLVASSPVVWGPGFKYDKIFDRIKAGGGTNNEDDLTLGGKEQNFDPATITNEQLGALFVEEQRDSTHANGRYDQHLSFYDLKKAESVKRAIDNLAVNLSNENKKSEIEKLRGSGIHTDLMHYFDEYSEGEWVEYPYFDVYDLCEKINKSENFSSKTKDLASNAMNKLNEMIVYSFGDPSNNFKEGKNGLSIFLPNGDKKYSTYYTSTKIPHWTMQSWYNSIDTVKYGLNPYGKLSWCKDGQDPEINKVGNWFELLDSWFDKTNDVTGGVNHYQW

T2: schistosome legumain SmAE (Schistosoma mansoni asparaginyl endopeptidase) (Schistosoma mansoni), P09841
T2 chain: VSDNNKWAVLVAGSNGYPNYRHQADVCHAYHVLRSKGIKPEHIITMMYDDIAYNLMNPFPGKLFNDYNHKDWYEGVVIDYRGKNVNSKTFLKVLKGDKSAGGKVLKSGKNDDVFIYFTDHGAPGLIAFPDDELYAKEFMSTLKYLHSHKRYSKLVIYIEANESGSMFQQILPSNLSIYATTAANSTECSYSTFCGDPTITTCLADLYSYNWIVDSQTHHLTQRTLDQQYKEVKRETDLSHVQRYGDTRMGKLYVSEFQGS


Biological target: T1, Clostripain, P09870
Assay: cell-based or functional assay

k2 | Binder
788 M⁻¹ s⁻¹ | Hydrocinnamoyl-Leu-[AOrn]-{CH:CH‑COOEt} (reading uncertain; also: printed as PhPr-Leu-AOrn-CH═CH-COOEt) [PhPr-Leu-AOrn-CH═CH-COOEt]
326 M⁻¹ s⁻¹ | LK (modifications not checked) [PhPr-Leu-ALys-CH═CH-CON(4H-quinoline)]

Continued, binder first:

Binder | k2
LK (modifications not checked) [PhPr-Leu-ALys-CH═CH-CON(Bzl)-p-CH2C6H4F] | 13800 M⁻¹ s⁻¹
LR (modifications not checked) [PhPr-Leu-AArg-CH═CH-COOEt] | 69600 M⁻¹ s⁻¹
Hydrocinnamoyl-Leu-[AOrn]-{CH:CH‑CON(CH2Ph)2} (reading uncertain) [PhPr-Leu-AOrn-CH═CH-CON(CH2Ph)2] | 541 M⁻¹ s⁻¹
LK (modifications not checked) [PhPr-Leu-ALys-CH═CH-CON(Me)CH2-1-naphthyl] | 639 M⁻¹ s⁻¹
LR (modifications not checked) [PhPr-Leu-AArg-CH═CH-CONHCH2Ph] | 287000 M⁻¹ s⁻¹
LK (modifications not checked) [PhPr-Leu-ALys-CH═CH-CON(CH2Ph)2] | 20000 M⁻¹ s⁻¹
LK (modifications not checked) [PhPr-Leu-ALys-CH═CH-CON(CH2-1-naphthyl2] | 2250 M⁻¹ s⁻¹
LK (modifications not checked) [PhPr-Leu-ALys-CH═CH-CON(Me)CH2Ph] | 6000 M⁻¹ s⁻¹
LK (modifications not checked) [PhPr-Leu-ALys-CH═CH-COOEt] | 40800 M⁻¹ s⁻¹
LK (modifications not checked) [PhPr-Leu-ALys-CH═CH-COOCH2Ph] | 20500 M⁻¹ s⁻¹
LK (modifications not checked) [PhPr-Leu-ALys-CH═CH-CON(Bzl)CH2-2-naphthyl] | 17500 M⁻¹ s⁻¹
LK (modifications not checked) [PhPr-Leu-ALys-CH═CH-CONHCH2Ph] | 1050 M⁻¹ s⁻¹
LR (modifications not checked) [PhPr-Leu-AArg-CH═CH-CON(CH2Ph)2] | 474000 M⁻¹ s⁻¹

Biological target: Gingipain K
Assay: cell-based or functional assay

k2 | Binder
927000 M⁻¹ s⁻¹ | Hydrocinnamoyl-Leu-[AOrn]-{CH:CH‑COOEt} (reading uncertain; also: printed as PhPr-Leu-AOrn-CH═CH-COOEt) [PhPr-Leu-AOrn-CH═CH-COOEt]
252000 M⁻¹ s⁻¹ | LK (modifications not checked) [PhPr-Leu-ALys-CH═CH-CON(4H-quinoline)]

Continued, binder first:

Binder | k2
LK (modifications not checked) [PhPr-Leu-ALys-CH═CH-CON(Bzl)-p-CH2C6H4F] | 801000 M⁻¹ s⁻¹
Hydrocinnamoyl-Ala-[AOrn]-{CH:CH‑COOEt} (reading uncertain) [PhPr-Ala-AOrn-CH═CH-COOEt] | 632000 M⁻¹ s⁻¹
LR (modifications not checked) [PhPr-Leu-AArg-CH═CH-COOEt] | 1580 M⁻¹ s⁻¹
Hydrocinnamoyl-Leu-[AOrn]-{CH:CH‑CON(CH2Ph)2} (reading uncertain) [PhPr-Leu-AOrn-CH═CH-CON(CH2Ph)2] | 61600 M⁻¹ s⁻¹
LK (modifications not checked) [PhPr-Leu-ALys-CH═CH-CON(Me)CH2-1-naphthyl] | 975000 M⁻¹ s⁻¹
LK (modifications not checked) [PhPr-Leu-ALys-CH═CH-CON(CH2Ph)2] | 2.13e+06 M⁻¹ s⁻¹
LK (modifications not checked) [PhPr-Leu-ALys-CH═CH-CON(CH2-1-naphthyl2] | 1.89e+06 M⁻¹ s⁻¹
LK (modifications not checked) [PhPr-Leu-ALys-CH═CH-CON(Me)CH2Ph] | 1.36e+06 M⁻¹ s⁻¹
LK (modifications not checked) [PhPr-Leu-ALys-CH═CH-COOEt] | 3.28e+06 M⁻¹ s⁻¹
LK (modifications not checked) [PhPr-Leu-ALys-CH═CH-COOCH2Ph] | 2.51e+06 M⁻¹ s⁻¹
LK (modifications not checked) [PhPr-Leu-ALys-CH═CH-CON(Bzl)CH2-2-naphthyl] | 811000 M⁻¹ s⁻¹
Hydrocinnamoyl-Leu-[AOrn]-{CH:CH‑CONHCH2Ph} (reading uncertain) [PhPr-Leu-AOrn-CH═CH-CONHCH2Ph] | 24700 M⁻¹ s⁻¹
LK (modifications not checked) [PhPr-Leu-ALys-CH═CH-CONHCH2Ph] | 236000 M⁻¹ s⁻¹

Biological target: T2, schistosome legumain SmAE (Schistosoma …)
Assay: cell-based or functional assay

IC50 | Binder
70 nM | AAN (modifications not checked) [Cbz-Ala-Ala-AAsn-CH═CH-CON(Bzl)Ph]
600 nM | Cbz-Ala-Ala-[AAsn]-{CH:CH‑CONHCH2CH2Ph} [Cbz-Ala-Ala-AAsn-CH═CH-CONHCH2CH2Ph]
550 nM | AAN (modifications not checked) [Cbz-Ala-Ala-AAsn-CH═CH-CON(nBu)2]
> 2000 nM | AAN (modifications not checked) [Cbz-Ala-Ala-AAsn-CH═CH-2-furyl]
750 nM | AAN (modifications not checked) [Cbz-Ala-Ala-AAsn-CH═CH-CO-(4-Ph-Py)]
800 nM | AAN (modifications not checked) [Cbz-Ala-Ala-AAsn-CH═CH-CONH-Bzl-4-F]
600 nM | AAN (modifications not checked) [Cbz-Ala-Ala-AAsn-CH═CH-CON(CH3)CH2CH2Ph]
10 nM | AAN (modifications not checked) [Biotinyl-Ala-Ala-AAsn-CH═CH-COOEt]
60 nM | AAN (modifications not checked) [Cbz-Ala-Ala-AAsn-CH═CH-CON(CH3)Ph]
62 nM | Cbz-Ala-Ala-[AAsn]-{CH:CH‑CON(Bzl)‑1‑CH2‑Napth} [Cbz-Ala-Ala-AAsn-CH═CH-CON(Bzl)-1-CH2-Napth]
31 nM | Cbz-Ala-Ala-[AAsn]-{CH:CH‑COOEt} [Cbz-Ala-Ala-AAsn-CH═CH-COOEt]
> 2000 nM | AAN (modifications not checked) [Cbz-Ala-Ala-AAsn-CH═CH-3-Py]
1000 nM | AAN (modifications not checked) [Cbz-Ala-Ala-AAsn-CH═CH-CONHBzl]
70 nM | Cbz-Ala-Ala-[AAsn]-{CH:CH‑CON(Bzl)‑2‑CH2‑Napth} [Cbz-Ala-Ala-AAsn-CH═CH-CON(Bzl)-2-CH2-Napth]

Second part, the binder before the results:

Binder | IC50
AAN (modifications not checked) [Cbz-Ala-Ala-AAsn-CH═CH-CONHPh] | 700 nM
AAN (modifications not checked) [Cbz-Ala-Ala-AAsn-CH═CH-CO-tetrahydroisoquinoline] | 200 nM
AAN (modifications not checked) [Cbz-Ala-Ala-AAsn-CH═CH-CON(Bzl-4-F)Bzl] | 60 nM
Cbz-Ala-Ala-[AAsn]-{CH:CH‑CON(CH3)Bzl} [Cbz-Ala-Ala-AAsn-CH═CH-CON(CH3)Bzl] | 55 nM
AAN (modifications not checked) [Cbz-Ala-Ala-AAsn-CH═CH-CON(CH2-2-furyl)2] | 900 nM
AAN (modifications not checked) [Cbz-Ala-Ala-AAsn-CH═CH-CO-tetrahydroquinoline] | 70 nM
Cbz-Ala-Ala-[AAsn]-{CH:CH‑CON(Bzl)2} [Cbz-Ala-Ala-AAsn-CH═CH-CON(Bzl)2] | 45 nM
AAN (modifications not checked) [Cbz-Ala-Ala-AAsn-CH═CH-COOBzl] | 38 nM
AAN (modifications not checked) [Cbz-Ala-Ala-AAsn-CH═CH-CO-MePhe-N(CH3)CH2CH2Ph] | 750 nM
AAN (modifications not checked) [Cbz-Ala-Ala-AAsn-CH═CH-CO-Pip] | 1000 nM
AAN (modifications not checked) [Cbz-Ala-Ala-AAsn-CH═CH-CO-isoindoline] | 300 nM
Cbz-Ala-Ala-[AAsn]-{CH:CH‑CO‑indoline} [Cbz-Ala-Ala-AAsn-CH═CH-CO-indoline] | 70 nM
AAN (modifications not checked) [Cbz-Ala-Ala-AAsn-CH═CH-CON(Bzl-4-OMe)Bzl] | 90 nM

Biological target: Gingipain R
Assay: cell-based or functional assay

k2 | Binder
32 M⁻¹ s⁻¹ | Hydrocinnamoyl-Leu-[AOrn]-{CH:CH‑COOEt} (reading uncertain; also: printed as PhPr-Leu-AOrn-CH═CH-COOEt) [PhPr-Leu-AOrn-CH═CH-COOEt]
73 M⁻¹ s⁻¹ | LK (modifications not checked) [PhPr-Leu-ALys-CH═CH-CON(4H-quinoline)]

The remaining lines, values behind:

Binder | k2
LK (modifications not checked) [PhPr-Leu-ALys-CH═CH-CON(Bzl)-p-CH2C6H4F] | 75 M⁻¹ s⁻¹
Hydrocinnamoyl-Ala-[AOrn]-{CH:CH‑COOEt} (reading uncertain) [PhPr-Ala-AOrn-CH═CH-COOEt] | 18 M⁻¹ s⁻¹
Hydrocinnamoyl-Leu-[AOrn]-{CH:CH‑CON(CH2Ph)2} (reading uncertain) [PhPr-Leu-AOrn-CH═CH-CON(CH2Ph)2] | 541 M⁻¹ s⁻¹
LK (modifications not checked) [PhPr-Leu-ALys-CH═CH-CON(Me)CH2-1-naphthyl] | 576 M⁻¹ s⁻¹
LR (modifications not checked) [PhPr-Leu-AArg-CH═CH-CONHCH2Ph] | 555000 M⁻¹ s⁻¹
LK (modifications not checked) [PhPr-Leu-ALys-CH═CH-CON(CH2Ph)2] | 65 M⁻¹ s⁻¹
LK (modifications not checked) [PhPr-Leu-ALys-CH═CH-CON(CH2-1-naphthyl2] | 214 M⁻¹ s⁻¹
LK (modifications not checked) [PhPr-Leu-ALys-CH═CH-CON(Me)CH2Ph] | 79 M⁻¹ s⁻¹
LK (modifications not checked) [PhPr-Leu-ALys-CH═CH-COOEt] | 289 M⁻¹ s⁻¹
LK (modifications not checked) [PhPr-Leu-ALys-CH═CH-COOCH2Ph] | 632 M⁻¹ s⁻¹
LK (modifications not checked) [PhPr-Leu-ALys-CH═CH-CON(Bzl)CH2-2-naphthyl] | 98 M⁻¹ s⁻¹
Hydrocinnamoyl-Leu-[AOrn]-{CH:CH‑CONHCH2Ph} (reading uncertain) [PhPr-Leu-AOrn-CH═CH-CONHCH2Ph] | 71 M⁻¹ s⁻¹
LK (modifications not checked) [PhPr-Leu-ALys-CH═CH-CONHCH2Ph] | 20 M⁻¹ s⁻¹
LR (modifications not checked) [PhPr-Leu-AArg-CH═CH-CON(CH2Ph)2] | 804000 M⁻¹ s⁻¹
